The assay concerns the target T1, SpyCatcher002‐mut (H26Q H62Q), cleaved with TEV protease.
T1 construct: Second-generation SpyCatcher (SC002) redesigned with H26Q and H62Q; also called SC1m; SCm; source: recombinant, purified; not shown: HisTag, N-terminal, cleaved
The assay is described as follows: LC-MS of the covalent adduct; 25 μM each in 20 mM HEPES, pH 7.4, room temperature, injected after 5 min; isopeptide-bonded ST/SC adduct detected by MS; repeated with Cu2+ without effect on adduct formation. To be noted: both partners purified.

No end group written: not given here.

T1 sequence (chain, as listed by the source): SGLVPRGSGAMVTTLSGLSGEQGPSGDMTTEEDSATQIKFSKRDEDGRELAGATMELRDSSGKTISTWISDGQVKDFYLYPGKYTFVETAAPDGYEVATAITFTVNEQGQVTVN

B1: ATCUN(GSH)‐SpyTag002 (peptide)
peptide: GSHVPTIVMVDAYKRYK
notes: SpyTag002 peptide with an N-terminal GSH ATCUN copper site; also called ST‐A1; ST; source: synthetic peptide (solid‐phase peptide synthesis, RP‐HPLC)
With B1, the binding result is “binds”.

B2: ATCUN(DAH)‐SpyTag002 (peptide)
peptide: DAHVPTIVMVDAYKRY-NH2
notes: SpyTag002 peptide with an N-terminal DAH ATCUN copper site; lacks the last lysine and ends with an amidated tyrosine; also called ST‐A2; ST; source: synthetic peptide (solid‐phase peptide synthesis, RP‐HPLC)
Turning to B2, the binding result is “binds”.

The values above are taken from publication PMC12278347, “Exploiting SpyTag/SpyCatcher Technology to Design New Artificial Catalytic Copper Proteins” (Chembiochem, 2025).
